From US9046519 (RSR, dated 2015)
Like-named read-outs stand apart in the source and are kept apart here.

Legend:
Test in all cases: Scatchard, 125I-ligand, solubilised TSHR on tubes
[1] = molecular target: T1, TSHR Glu178 to Ala and Asp203 to Ala (human, UniProt P16473 21-764)
T1 construct: whole, on cells; as m1

[2] = molecular target: T2, human thyrotropin receptor (TSHR), wild type, full length (human, UniProt P16473 21-764)
T2 construct: whole, on cells; Full length cDNA in pcDNA5.1/FRT, stably expressed in Flp-In-CHO cells; Cyclic AMP assays: on the cells; also called TSH receptor; Wild type TSHR

[3] = molecular target: T3, TSHR Arg255 to Ala and Tyr185 to Ala (human, UniProt P16473 21-764)
T3 construct: whole, on cells; as m1

[4] = molecular target: T4, TSHR Arg255 to Ala, Trp258 to Ala and Tyr185 to Ala (human, UniProt P16473 21-764)
T4 construct: whole, on cells; as m1

[5] = molecular target: T5, TSHR Glu157 to Ala and Asp203 to Ala (human, UniProt P16473 21-764)
T5 construct: whole, on cells; as m1

[6] = molecular target: T6, TSHR Arg255 to Ala, Lys183 to Ala and Tyr185 to Ala (human, UniProt P16473 21-764)
T6 construct: whole, on cells; as m1

[7] = molecular target: T7, TSHR Tyr185 to Ala and Lys183 to Ala (human, UniProt P16473 21-764)
T7 construct: whole, on cells; as m1

[8] = molecular target: T8, TSHR Trp258 to Ala and Tyr185 to Ala (human, UniProt P16473 21-764)
T8 construct: whole, on cells; as m1

TSHR Lys250 to Ala = molecular target: T9, TSHR Lys250 to Ala (human, UniProt P16473 21-764)
T9 construct: whole, on cells; as m1
Method: (§1) Firstly, dilution profiles of each TSHR preparation were set up. In these experiments, plastic tubes (Maxisorp Star; NUNC) were coated overnight at 4° C. with 200 µL of a mouse monoclonal antibody to the TSHR C-terminus at 10 µg/mL in coating buffer (0.1 mmol/L Na_2CO$_3$ pH 9.2). After washing and post-coating (10 mg/mL of BSA in water) the tubes were washed with assay buffer (10 mmol/L Tris-HCl pH 7.8, 50 mmol/L NaCl and 1 mg/mL BSA) containing 0.1% Triton X-100. In the next step, 200 µL of solubilized wild type or mutated TSHR preparations were added to the tubes and incubated overnight at 4 C. […] After aspiration of the solutions, the tubes were washed and counted in a gamma counter.

TSHR Trp258 to Ala = molecular target: T10, TSHR Trp258 to Ala (human, UniProt P16473 21-764)
T10 construct: whole, on cells; as m1; also called Trp258 mutated to Ala
Method: as §1

TSHR Glu61 to Ala = molecular target: T11, TSHR Glu61 to Ala (human, UniProt P16473 21-764)
T11 construct: whole, on cells; as m1; also called Glu61 mutated to Ala
Method: as §1

TSHR Phe134 to Ala = molecular target: T12, TSHR Phe134 to Ala (human, UniProt P16473 21-764)
T12 construct: whole, on cells; as m1
Method: as §1

TSHR Asp160 to Ala = molecular target: T13, TSHR Asp160 to Ala (human, UniProt P16473 21-764)
T13 construct: whole, on cells; as m1
Method: as §1

[9] = molecular target: T2, human thyrotropin receptor (TSHR), wild …; remark: listed apart in the source
Method: as §1

TSHR Asp203 to Ala = molecular target: T14, TSHR Asp203 to Ala (human, UniProt P16473 21-764)
T14 construct: whole, on cells; as m1; also called Asp203 mutated to Ala
Method: as §1

TSHR Gln235 to Ala = molecular target: T15, TSHR Gln235 to Ala (human, UniProt P16473 21-764)
T15 construct: whole, on cells; as m1
Method: as §1

TSHR Glu251 to Ala = molecular target: T16, TSHR Glu251 to Ala (human, UniProt P16473 21-764)
T16 construct: whole, on cells; as m1
Method: as §1

TSHR Lys209 to Ala = molecular target: T17, TSHR Lys209 to Ala (human, UniProt P16473 21-764)
T17 construct: whole, on cells; as m1
Method: as §1

TSHR Tyr279 to Ala = molecular target: T18, TSHR Tyr279 to Ala (human, UniProt P16473 21-764)
T18 construct: whole, on cells; as m1
Method: as §1

TSHR Tyr185 to Ala = molecular target: T19, TSHR Tyr185 to Ala (human, UniProt P16473 21-764)
T19 construct: whole, on cells; as m1
Method: as §1

TSHR Phe130 to Ala = molecular target: T20, TSHR Phe130 to Ala (human, UniProt P16473 21-764)
T20 construct: whole, on cells; as m1
Method: as §1

TSHR Arg255 to Asp = molecular target: T21, TSHR Arg255 to Asp (human, UniProt P16473 21-764)
T21 construct: whole, on cells; as m1; also called TSHR with Arg255 mutated to Asp; Arg255 Asp mutation
Method: as §1

[10] = molecular target: T22, TSHR Arg255 to Ala and Trp258 to Ala (human, UniProt P16473 21-764)
T22 construct: whole, on cells; as m1
Method: as §1

TSHR Arg255 to Ala = molecular target: T23, TSHR Arg255 to Ala (human, UniProt P16473 21-764)
T23 construct: whole, on cells; as m1; also called Arg255 mutated to Ala
Method: as §1

TSHR Glu107 to Ala = molecular target: T24, TSHR Glu107 to Ala (human, UniProt P16473 21-764)
T24 construct: whole, on cells; as m1
Method: as §1

TSHR Glu178 to Ala = molecular target: T25, TSHR Glu178 to Ala (human, UniProt P16473 21-764)
T25 construct: whole, on cells; as m1; also called Glu178 mutated to Ala
Method: as §1

TSHR Arg274 to Ala = molecular target: T26, TSHR Arg274 to Ala (human, UniProt P16473 21-764)
T26 construct: whole, on cells; as m1
Method: as §1

TSHR Asp43 to Ala = molecular target: T27, TSHR Asp43 to Ala (human, UniProt P16473 21-764)
T27 construct: whole, on cells; as m1; also called Asp43 mutated to Ala
Method: as §1

TSHR Ser281 to Ala = molecular target: T28, TSHR Ser281 to Ala (human, UniProt P16473 21-764)
T28 construct: whole, on cells; as m1; also called Ser281 mutated to Ala
Method: as §1

TSHR Glu157 to Ala = molecular target: T29, TSHR Glu157 to Ala (human, UniProt P16473 21-764)
T29 construct: whole, on cells; as m1; also called Glu157 mutated to Ala
Method: as §1

TSHR Thr257 to Ala = molecular target: T30, TSHR Thr257 to Ala (human, UniProt P16473 21-764)
T30 construct: whole, on cells; as m1
Method: as §1

TSHR Asp276 to Ala = molecular target: T31, TSHR Asp276 to Ala (human, UniProt P16473 21-764)
T31 construct: whole, on cells; as m1; also called Asp276 mutated to Ala
Method: as §1

B1: 9D33 MAb (antibody, V domains shown)
VH: DVQIQQPGTELVKPGASVRLSCKASGYTFTTYWMHWVKQRPGQGLEWIGEIDPSDSYTNYNQKFKGKATLTVDKSSSTAYMHLSSLTSEDSAVYYCSRNYGSGYYFDYWGQGTTLTVSS
VL: GVEMTQSPAIMSASPGEKVTMTCSASSSVSYMHWYQQKSGTSPKRWIYDTSKLASGVPARFSGSGSGTSYSLTISSMETEDAATYYCQQWSSNPWTFGGGTKLEIK
[1]
  Ka: 8e+09 M⁻¹
[2]
  Ka: 1.8e+10 M⁻¹
[3]
  Ka: 9e+09 M⁻¹
[4]
  Ka: 8e+09 M⁻¹
[5]
  Ka: 6e+09 M⁻¹
[6]
  Ka: 3e+09 M⁻¹
[7]
  Ka: 6e+09 M⁻¹
[8]
  Ka: 9e+09 M⁻¹
TSHR Lys250 to Ala
  Ka: 6e+09 M⁻¹
TSHR Trp258 to Ala
  Ka: 1.2e+10 M⁻¹
TSHR Glu61 to Ala
  Ka: 9e+09 M⁻¹
TSHR Phe134 to Ala
  Ka: 5e+09 M⁻¹
TSHR Asp160 to Ala
  Ka: 1e+10 M⁻¹
[9]
  Ka: 1.8e+10 M⁻¹
TSHR Asp203 to Ala
  Ka: 1.4e+10 M⁻¹
TSHR Gln235 to Ala
  Ka: 1.1e+10 M⁻¹
TSHR Glu251 to Ala
  Ka: 8e+09 M⁻¹
TSHR Lys209 to Ala
  Ka: 8e+09 M⁻¹
TSHR Tyr279 to Ala
  Ka: 6e+09 M⁻¹
TSHR Tyr185 to Ala
  Ka: 9e+09 M⁻¹
TSHR Phe130 to Ala
  Ka: 9e+09 M⁻¹
TSHR Arg255 to Asp
  Ka: 1.3e+10 M⁻¹
[10]
  Ka: 1.1e+10 M⁻¹
TSHR Arg255 to Ala
  Ka: 8e+09 M⁻¹
TSHR Glu107 to Ala
  Ka: 6e+09 M⁻¹
TSHR Glu178 to Ala
  Ka: 1.3e+10 M⁻¹
TSHR Arg274 to Ala
  Ka: 5e+09 M⁻¹
TSHR Asp43 to Ala
  Ka: 1.4e+10 M⁻¹
TSHR Ser281 to Ala
  Ka: 9e+09 M⁻¹
TSHR Glu157 to Ala
  Ka: 1.3e+10 M⁻¹
TSHR Thr257 to Ala
  Ka: 7e+09 M⁻¹
TSHR Asp276 to Ala
  Ka: 1.3e+10 M⁻¹
